Assay results published in patent publication US20180017576A1 (WESTFAELISCHE WILHELMS UNIVERSITAET MUENSTER, published 2018).

B1: recombinant human S100A8 protein (other)
chain: LTELEKALNSIIDVYHKYSLIKGNFHAVYRDDLKKLLETECPQYIRKKGADVWFKELDINTDGAVNFQEFLILVIKMGVAAHKKSHEESHKE
notes: also called recS100A8; MRP8

Legend:
[1] = target: T1, recombinant human S100A9 protein, wild type (human, UniProt P06702 2-114); experiment: MALDI-MS, native solvent conditions, no calcium
T1 construct: also called recS100A9; S100A9 wt
T1 sequence: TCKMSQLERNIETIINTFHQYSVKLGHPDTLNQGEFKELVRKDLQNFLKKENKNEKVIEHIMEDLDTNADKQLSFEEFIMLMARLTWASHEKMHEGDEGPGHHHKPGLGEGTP

[2] = target: the molecule itself; experiment: MALDI-MS, native solvent conditions, with calcium
From the text: FIG. 2: MALDI mass spectra in the absence and presence of calcium under native solvent conditions. (a) MALDI mass spectra of recS100A8/S100A9 wt complexes in the absence (left) and presence (right) of calcium using 2,6-dihydroxy-acetophenone as matrix. The mass spectra between m/z 20,000 and 100,000 together with an inset between m/z 46,000 and 50,000 are shown. T⁺, singly charged; T²⁺, doubly charged; T³⁺, triply charged tetramer. (b) MALDI mass spectra of recS100A8/S100A9(N69A) mutant complexes in the absence (left) and presence (right) of calcium.
The oligomerization properties of the recS100A8/S100A9 mutant complexes can be determined by MALDI-MS. As shown exemplarily for the N69A mutant in FIG. 2(b), all mutant S100A9 proteins display signals for singly charged heterodimers in the absence of calcium. In contrast to the results obtained with the recS100A8/S100A9 wt proteins no heterotetramers can be observed for the mutant complexes in the presence of calcium (FIG. 2). The base peaks under these conditions exclusively represent S100A8/S100A9(N69A), S100A8/S100A9(E78A) and S100A8/S100A9(N69A+E78A) heterodimers. All MALDI-MS experiments presented here were also confirmed by ESI-MS measurements (see FIG. 3).

[3] = target: the molecule itself; experiment: glycerol density gradient centrifugation, 100 uM Ca2+
Method: (§1) FIG. 5: Density gradient centrifugation. wt and mutant recS100A8/S100A9 complexes were loaded on a glycerol gradient in the presence of either 1 mM EGTA or 100 μM Ca²⁺. After centrifugation, successive fractions of the gradients were analyzed by SDS-PAGE. […] Addition of calcium induced a marked shift for recS100A8/S100A9 wt to higher glycerol densities, whereas for the mutant complexes recS100A8/S100A9(N69A) and recS100A8/S100A9(E78A) no shift was observed.

[4] = target: B1; experiment: glycerol density gradient centrifugation, 1 mM EGTA
Method: as §1

[5] = target: B1; experiment: ESI-MS, native solvent conditions

B1
binding result [1]: binds

B2: recS100A8/S100A9(N69A+E78A) heterodimer (other)
chain 1: LTELEKALNSIIDVYHKYSLIKGNFHAVYRDDLKKLLETECPQYIRKKGADVWFKELDINTDGAVNFQEFLILVIKMGVAAHKKSHEESHKE
chain 2: TCKMSQLERNIETIINTFHQYSVKLGHPDTLNQGEFKELVRKDLQNFLKKENKNEKVIEHIMEDLDTAADKQLSFEAFIMLMARLTWASHEKMHEGDEGPGHHHKPGLGEGTP
notes: Heterodimer of S100A8 and doubly mutated S100A9
binding result [2]: no binding

B3: recS100A8/S100A9(E78A) heterodimer (other)
chain 1: LTELEKALNSIIDVYHKYSLIKGNFHAVYRDDLKKLLETECPQYIRKKGADVWFKELDINTDGAVNFQEFLILVIKMGVAAHKKSHEESHKE
chain 2: TCKMSQLERNIETIINTFHQYSVKLGHPDTLNQGEFKELVRKDLQNFLKKENKNEKVIEHIMEDLDTNADKQLSFEAFIMLMARLTWASHEKMHEGDEGPGHHHKPGLGEGTP
notes: Heterodimer of S100A8 and mutated S100A9; also called recS100A8/S100A9(E78A) mutant complex
binding result [2]: no binding

B4: recS100A8/S100A9 wt heterodimer (other)
chain 1: LTELEKALNSIIDVYHKYSLIKGNFHAVYRDDLKKLLETECPQYIRKKGADVWFKELDINTDGAVNFQEFLILVIKMGVAAHKKSHEESHKE
chain 2: TCKMSQLERNIETIINTFHQYSVKLGHPDTLNQGEFKELVRKDLQNFLKKENKNEKVIEHIMEDLDTNADKQLSFEEFIMLMARLTWASHEKMHEGDEGPGHHHKPGLGEGTP
notes: Heterodimer of one S100A8 and one S100A9 chain; Two such heterodimers associate to the (S100A8/S100A9)2 tetramer in the presence of calcium; also called recS100A8/S100A9 wild-type complex; wt S100A8/S100A9
binding result [3]: binds

B5: recS100A8/S100A9(N69A) heterodimer (other)
chain 1: LTELEKALNSIIDVYHKYSLIKGNFHAVYRDDLKKLLETECPQYIRKKGADVWFKELDINTDGAVNFQEFLILVIKMGVAAHKKSHEESHKE
chain 2: TCKMSQLERNIETIINTFHQYSVKLGHPDTLNQGEFKELVRKDLQNFLKKENKNEKVIEHIMEDLDTAADKQLSFEEFIMLMARLTWASHEKMHEGDEGPGHHHKPGLGEGTP
notes: Heterodimer of S100A8 and mutated S100A9; also called recS100A8/S100A9(N69A) mutant complex
binding result [2]: no binding

B6: recombinant human S100A9(N69A) (other)
chain: TCKMSQLERNIETIINTFHQYSVKLGHPDTLNQGEFKELVRKDLQNFLKKENKNEKVIEHIMEDLDTAADKQLSFEEFIMLMARLTWASHEKMHEGDEGPGHHHKPGLGEGTP
notes: also called N69A mutant
binding result [4]: binds

B7: recombinant human S100A9(N69A+E78A) (other)
chain: TCKMSQLERNIETIINTFHQYSVKLGHPDTLNQGEFKELVRKDLQNFLKKENKNEKVIEHIMEDLDTAADKQLSFEAFIMLMARLTWASHEKMHEGDEGPGHHHKPGLGEGTP
notes: also called double mutant
binding result [5]: binds

B8: recombinant human S100A9(E78A) (other)
chain: TCKMSQLERNIETIINTFHQYSVKLGHPDTLNQGEFKELVRKDLQNFLKKENKNEKVIEHIMEDLDTNADKQLSFEAFIMLMARLTWASHEKMHEGDEGPGHHHKPGLGEGTP
notes: also called E78A mutant
binding result [4]: binds
